Percent of total gp96 migrating data for 1 molecule are collected here from PMC2856694.

This test concerns the target T1, gp96 from normal mouse organs (mouse (endogenous in mouse organs)), P08113.
T1 chain: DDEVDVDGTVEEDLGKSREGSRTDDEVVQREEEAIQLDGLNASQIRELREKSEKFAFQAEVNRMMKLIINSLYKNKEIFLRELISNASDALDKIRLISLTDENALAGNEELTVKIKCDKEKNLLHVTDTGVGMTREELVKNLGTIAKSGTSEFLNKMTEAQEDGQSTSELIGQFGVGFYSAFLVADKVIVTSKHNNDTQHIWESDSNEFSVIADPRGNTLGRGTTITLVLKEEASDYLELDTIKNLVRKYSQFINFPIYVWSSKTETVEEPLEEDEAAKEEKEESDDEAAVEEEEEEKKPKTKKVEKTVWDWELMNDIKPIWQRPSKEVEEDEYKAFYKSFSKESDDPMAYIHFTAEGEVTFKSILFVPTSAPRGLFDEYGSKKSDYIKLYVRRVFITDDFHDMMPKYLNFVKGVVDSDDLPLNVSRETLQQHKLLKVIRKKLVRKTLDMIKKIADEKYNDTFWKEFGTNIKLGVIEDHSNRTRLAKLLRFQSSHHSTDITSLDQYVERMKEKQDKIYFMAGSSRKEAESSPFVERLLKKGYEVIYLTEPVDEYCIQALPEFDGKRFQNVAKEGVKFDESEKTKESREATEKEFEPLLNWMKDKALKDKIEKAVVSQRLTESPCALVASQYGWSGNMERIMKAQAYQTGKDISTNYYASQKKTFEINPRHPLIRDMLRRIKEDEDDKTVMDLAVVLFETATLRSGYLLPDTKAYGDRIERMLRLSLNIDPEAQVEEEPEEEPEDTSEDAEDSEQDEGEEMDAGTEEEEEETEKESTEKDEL
The experiment in a line: non-reducing SDS-PAGE with immunoblot. The conditions noted are these: remark: other sources report otherwise.

B1: gp96 from normal mouse organs, P08113 22-802 (natural protein)
chain: T1 chain
The molecule B1 had a percent of total gp96 migrating at ~200 kDa (disulfide-linked dimer) below 50%.
